This test has as its target Delta-RBD (SARS-CoV-2, UniProt P0DTC2). As to the kind of experiment: BLI. (BLI is a label-free optical method that tracks binding on a fibre tip over time.)

B1: sACE2_(2).S14-IgG1 (Fc fusion)
chain: QSTIEEQAKYFLDKFNHEAEDLFYQSSLASWNYNTNITEENVQNMNNAGDKWSAFLKEQSTTAQMYPLQEIQNLTVKLQLQALQQNGSSVLSEDKSKRLNTILNTMSTIYSTGKVCNPDNPQECLLLEPGLNEIMANSLDYNERLWAWESWRSEVGKQLRPLYEEYVVLKNEMARANHYEDYGDYWRGDYEVNGVDGYDYSRGQLIEDVEHTFEEIKPLYEHLHAYVRAKLMNAYPSYISPIGCLPAHLLGDMWGRFWTNLYSLTVPFGQKPNIDVTDAMVDQAWDAQRIFKEAEKFFVSVGLPNMTQGFWEYSMLTDPGNVQKAVCHPTAWDLGKGDFRILMCTKVTMDDFLTAHHEMGHIQYDMAYAAQPFLLRNGANEGFHEAVGEIMSLSAATPKHLKSIGLLSPDFQEDNETEINFLLKQALTIVGTLPFTYMLEKWRWMVFKGEIPKDQWMKKWWEMKREIVGVVEPVPHDETYCDPASLFHVSNDYSFIRYYTRTLYQFQFQEALCQAAKHEGPLHKCDISNSTEAGQKLFNMLRLGKSEPWTLALENVVGAKNMNVRPLLNYFEPLFTWLKDQNKNSFVGWSTDWSPYADQSIKVRISLKSALGDKAYEWNDNEMYLFRSSVAYAMRQYFLKVKNQTILFGEEDVRVANLKPRISFNFFVTAPKNVSDIIPRTEVEKAIRMSRSRINDAFRLNDSSLEFLGIQPTLG
Take B1: the koff is 0.00087 s⁻¹.

A word on the koff: it is a measure of how fast the partners let go of each other. A higher koff goes with fast dissociation.

The record behind these values is publication PMC11342882 (Molecular Therapy. Methods & Clinical Development, 2024).
